Usually EC50 stands for the concentration giving half of the maximal effect. A higher EC50 goes with a need for much substance. By IC50 is commonly meant the concentration needed to halve the response being measured. A word on the EC50 (read off the curve): it is the concentration needed to bring the measured effect to its halfway point. High values mean lower potency in that assay, low ones higher potency in that assay.

These results are taken from patent US20180346580A1 (INTERVET, published 2018).

In assay [1] the target is T1, canine IL-4 receptor alpha chain (full length) expressed on the surface of CHO DG44 cells (canine).
T1 construct: also called cIL-4Rα; CHO-cIL-4Rα
T1 chain: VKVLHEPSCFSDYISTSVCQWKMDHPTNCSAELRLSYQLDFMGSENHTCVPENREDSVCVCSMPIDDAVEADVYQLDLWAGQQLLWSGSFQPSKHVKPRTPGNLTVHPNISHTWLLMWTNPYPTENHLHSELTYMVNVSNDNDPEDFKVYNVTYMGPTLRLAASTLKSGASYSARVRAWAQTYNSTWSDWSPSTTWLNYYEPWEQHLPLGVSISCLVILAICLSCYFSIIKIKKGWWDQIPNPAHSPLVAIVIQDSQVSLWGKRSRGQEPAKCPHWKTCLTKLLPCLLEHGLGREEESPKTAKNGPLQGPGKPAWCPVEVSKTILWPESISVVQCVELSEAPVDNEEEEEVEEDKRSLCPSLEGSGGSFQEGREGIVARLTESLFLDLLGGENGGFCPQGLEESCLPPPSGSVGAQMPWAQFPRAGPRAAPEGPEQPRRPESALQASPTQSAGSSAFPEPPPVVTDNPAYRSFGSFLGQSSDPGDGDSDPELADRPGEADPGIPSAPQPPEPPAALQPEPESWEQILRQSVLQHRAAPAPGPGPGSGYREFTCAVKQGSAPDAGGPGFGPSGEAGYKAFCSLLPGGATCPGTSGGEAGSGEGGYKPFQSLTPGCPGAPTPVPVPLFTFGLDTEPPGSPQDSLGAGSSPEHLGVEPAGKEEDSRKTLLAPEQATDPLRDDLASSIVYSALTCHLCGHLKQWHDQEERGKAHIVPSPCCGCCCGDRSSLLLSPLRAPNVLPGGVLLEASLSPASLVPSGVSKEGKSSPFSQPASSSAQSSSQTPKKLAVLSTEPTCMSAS
In words: flow cytometry, binding to CHO-cIL-4Rα cells.

Assay [2] has as its target T1, canine IL-4 receptor alpha chain (full …). Put plainly: flow cytometry ligand blockade on CHO-cIL-4Rα cells; competitor biotinylated canine IL-4 at 0.32 µg/mL. How it is done:
Procedure: [0247] 1. CHO-DH44-canIL-4Rα cell grown to 2-4 ×10⁶ cells/mL with more than 96% viability. [0248] 2. The cells were spun down, the supernatant discarded, and the cells were suspended in FACS buffer to 2×10⁷ cells/mL. [0249] 3. The cells were distributed into a U-shape 96-well plate, 50 μl each well. [0250] 4. The anti-canine IL-4Rα mAbs in FACS buffer was diluted three-fold on a 96-well plate from top down to bottom well, starting at 50 μg/mL. [0251] 5. 50 μl of each diluted Ab was transferred into the cell plate and then incubated on ice for 30 min. [0252] 6. The cells were washed twice with FACS buffer. [0253] 7. The cells were resuspended into 100 μl of biotinylated canine IL-4 at 0.32 μg/mL in FACS buffer and incubated on ice for 30 min. [0254] 8. The cells were washed twice with FACS buffer. [0255] 9. The cells were responded into 100 μl of R-phycoerythin conjugated Streptavidin (1:1000 dilution) in FACS buffer and incubated on ice for 30 min. [0256] 10. The cells were washed twice with FACS buffer. [0257] 11. The cells were brought up to 300 μl in FACS buffer. [0258] 12. 10,000 cells were read for each sample by BD Accuri-C6. [0259] 13. The resulting readout were analyzed by FlowJo to get the mean fluorescent intensity (MFI).
(Flow cytometry measures light scatter and fluorescence of single cells or particles in a stream.)

The target in assay [3] is T2, HIS-tagged extracellular domain of canine IL-4 receptor alpha chain (canine).
T2 construct: also called canine IL-4 receptor alpha chain ECD HIS-tagged protein; extracellular domain of canine IL-4Rα
T2 chain: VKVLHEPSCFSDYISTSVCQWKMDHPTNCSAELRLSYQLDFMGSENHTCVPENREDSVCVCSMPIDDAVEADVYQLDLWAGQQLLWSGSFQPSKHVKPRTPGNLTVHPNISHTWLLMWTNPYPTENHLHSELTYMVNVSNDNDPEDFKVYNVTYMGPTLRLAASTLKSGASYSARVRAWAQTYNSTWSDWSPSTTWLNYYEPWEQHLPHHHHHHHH
In words: ELISA on plate-coated HIS-tagged canine IL-4Rα ECD, detection with HRP goat anti-mouse IgG. How it is done:
This procedure was repeated as necessary to obtain adequate amounts of mAb from each hybridoma clone. Harvested cell suspensions were centrifuged and the supernatants were filtered through 0.2 micron filter membranes. For antibody purification, each clone's supernatant was purified using a Protein G Sepharose 4 Fast flow 5 mL column (GE Healthcare) by gravity flow. After washing with Tris-EDTA (TE) buffer pH 8.0, bound antibodies were eluted using 0.1 M glycine buffer, pH 2.7, followed by pH neutralization using 1 M Tris, pH 8.0. Antibodies were concentrated and buffer exchanged into phosphate-buffered saline (PBS) using Centriprep YM-10 kDa NMWL centrifugal filter units (Millipore). Antibody concentrations were quantified using spectrophotometry. Purified anti-canine IL-4 receptor α chain mAbs were tested for reactivity with the HIS-tagged ECD domain of canine IL-4 receptor alpha chain by ELISA as follows: HIS-tagged canine IL-4 receptor alpha chain protein is diluted to 10 μg/mL in coating buffer (Carbonate/Bicarbonate pH 9.0) and dispensed at 100 μl/well in 96-well flat bottomed ELISA plates (NUNC). The plates are incubated at 4° C. overnight. The plates are then washed three times with phosphate buffered saline containing 0.05% Tween-20 (PBST). Next, 200 μl of blocking buffer (5% skim milk in PBST) is added to each well and the plates are incubated at 37° C. for 60 minutes. The plates are then washed three times with PBST. Next, 100 μl of test mAbs diluted in blocking buffer is added to the first wells of the appropriate columns. Test mAbs are then diluted three-fold to the appropriate plate position. Following incubation of the plates at 37° C. for 60 minutes, the plates are washed three times with PBST. Next, 100 μl per well of a 1:2,000 dilution of a horseradish peroxidase conjugated goat anti-mouse IgG (KPL) is added to the plates, which are then incubated at 37° C. for 60 minutes. Then the plates are washed three times with PBST, and 100 μl/well of 3,3′,5,5′ tetramethyl benzidine, (TMB) substrate (from KPL) is added to the plates. The color reaction is allowed to develop for 5-20 minutes at 37° C. prior to measuring absorbance at 650 nm.
Various mouse anti-canine IL-4Rα monoclonal antibodies (mAbs) were assayed by ELISA for their ability to bind the extracellular domain of canine IL-4Rα.
In general terms: ELISA stands for enzyme-linked immunosorbent assay.

B1: mouse anti-canine IL-4Rα monoclonal antibody 2E2 (antibody, V domains shown)
VH: EVKLVESGGGLVQPGGSLKLSCVASGFTFSDYHMHWVRQTPEKRLEWVAYISKGGGSTYYPDTEKGRFTISRDNAKNTLYLQMSRLKSEDTAMYYCARSPGPSSFYWYFDVWGTGTTVTVSS
VL: DIQMTQSPASLSASVGETVTITCRASENIYSYLAWYQQKQGKSPQLLVYNAKTLAEGVPSRFSGSGSGTQFSLKINSLQPEDFGSYYCQHHYGIPVTVGVGTKLELK
notes: Hybridoma-derived mouse antibody; also called mAb 2E2
For B1, the EC50 in assay [1] amounted to 1.2 nM. Besides, the IC50 in assay [2] amounted to 2.1 nM.

B2: mouse anti-canine IL-4Rα monoclonal antibody 4D8 (antibody, V domains shown)
VH: EVTLVESGGGLVQPGGSLKLSCAASGFTFSDYYMYWVRQTPEKRLEWVAYISPGGGSTYYPDTIKGRFTISRDNAKNTLYLQMSRLKSEDTAMYYCTRHGSPYGSSRGAWFAYWGQGTLVTVSA
VL: DIQMTQSPASLSASVGETVTITCRASENIYSYLAWYQQKQGKSPQLLVYNGKTLAEGVPARFSGSGSGTQFSLKINSLQPEDFGSYYCQHHDGIPVTFGAGTKLELK
notes: Hybridoma-derived mouse antibody; also called mAb 4D8
B2: the response in assay [1] was half-maximal at 1.1 nM (EC50). Moreover, the IC50 in assay [2] came out at 4.2 nM.

B3: 1B12 (antibody, V domains shown)
VH: EVQLQQSGPELVKPGASVKISCKASGYTFTDYYMNWVKQSHGKSLEWIGDIIPSNGGTSYNQKFKGKATLTVDKSSSAAYMELRSLTSEDSAVYYCARGISYYGNRYYFTMDYWGQGTSVTVSS
VL: DIVMTQAAPSVPVTPGESVSISCRSSKSLLHSNGNTYLFWFVQRPGQSPQLLIYRMSNLASGVPDRFSGSGSGTAFTLRISRVEAEDVGVYYCMQHLEYPFTFGSGTKLDIK
notes: member of the group m16; also called mAb 1B12; mouse anti-canine IL-4Rα monoclonal antibody 1B12
In the case of B3, the binding result in assay [3] is “binds”.

B4: mouse anti-canine IL-4Rα monoclonal antibody 11B6 (antibody, V domains shown)
VH: EVQLQESGPGLAKPSQTLSLTCSVTGYSITSDYWNWIRKFPGNKLEYMGYINYSGNTYYNPSLKSRISITRDTSKNQYYLQLNSVTTEDTATYYCARYGGLRQGSWHFDVWGPGTTVTVSS
VL: QIVLTQSPAIMSASPGEKVTISCSASSSVSYMYWYQQKPGSSPKPWIYRTSNLASGVPARFSGSGSGTSYSLTISSMEAEDAATYYCQQYHSYPATFGGGTKLEIK
notes: Hybridoma-derived mouse antibody; also called mAb 11B6
Consider B4, for which the EC50 in assay [1] worked out at 7.5 nM. For the same molecule, in assay [3], the concentration giving a half-maximal response (EC50 (read off the curve)) is roughly 0.3 nM. The half-inhibitory concentration (IC50) in assay [2] was 53.2 nM.

B5: 11D3 (antibody, V domains shown)
VH: QIQLVQSGPELKKPGETVKISCKASGYIFTTYGMYWVKQAPGKGLKWMGWINTYSGVPTYVDDFKGRFAFSLETSASTAYLQINNLKNEDTATYFCVVAGWFAYWGQGTLVTVSA
VL: DIKMTQSPSSMYASLGERVTITCKASQDIKSYLSWFQQKPGKSPKTLIYRANILIDGVPSRFSGSGSGQDYSLTISSLEYEDMGIYYCLQYDEFPYTFGGGTKLEIK
notes: member of the group m16; also called mAb 11D3; mouse anti-canine IL-4Rα monoclonal antibody 11D3
For the molecule B5, in assay [3], the concentration for a half-maximal effect (EC50 (read off the curve)) was roughly 0.1 nM.

B6: mouse anti-canine IL-4Rα monoclonal antibody 4H3 (antibody, V domains shown)
VH: QVQLQQPGAELVKPGASVKLSCKASGYTFTNYWIHWMKQRPGRGLEWIGRIDPNSGGTKYNEKFKSKATLTVDKPSITAYMQLSSLTSEDSAVYYCAAFGSTYGFAYWGQGTLVTVSA
VL: DIVMSQSPSSLAVSAGEKVTMSCKSSQSLLNSRTRKNYLAWYQQKPGQSPKLLIYWASTRESGVPDRFTGSGSGTDFTLTISSVQAEDLAVYYCKQSYNLYTFGGGTKLEIK
notes: Hybridoma-derived mouse antibody; also called mAb 4H3
Regarding B6, the response in assay [1] was half-maximal at 1.6 nM (EC50). For the same molecule, in assay [2], the IC50 turned out to be 3.9 nM.

B7: mouse anti-canine IL-4Rα monoclonal antibody 6C12 (antibody, V domains shown)
VH: QIQLIQSGPELKKPGETVKISCKASGYTFTTFGMSWVKQAPGKGLKWMGWISTYSGVPTYADDFKGRFAFSLETSASTAYLQINNLKNEDTASYFCARHTFQSRGLAYWGQGTLVTVSA
VL: DIVMTQSHKFMSTSVGDRVSITCKASQDVITTVAWYQQKPGQSPKLLIYSASYRYTGVPDRFTGSGSGTDFTFTITSVQTEDLAVYYCQQHYSTPWTFGGGTKLEIK
notes: Hybridoma-derived mouse antibody; also called mAb 6C12
In assay [1], B7 returned an EC50 of 8.6 nM. The molecule also returned an IC50 in assay [2] of 19.3 nM.

B8: 10F2 (antibody, V domains shown)
VH: QVHLKESGPGLVAPSQSLSITCTVSGFSLTSYGVSWVRQPPGEGLEWLGVIWGDGSTYFHSALISRLSISKDDSKSQVFLKLNSLQTDDTATYYCAKQGTIYDGYYNYAMDYWGQGTSVTVSS
VL: DIVMSQSPSSLTVSVGEKVTMSCKSSQNLLYGGNQKNYLAWYQQKPGQSPKLLIYWASTRESGVPDRFTGSGSGTDFTLTISSVRAEDLAVYYCQQYYDYPYTFGGGTKLEIK
notes: member of the group m16; also called mAb 10F2; mouse anti-canine IL-4Rα monoclonal antibody 10F2
In the case of B8, the “EC50 (read off the curve)” value in assay [3] is roughly 0.3 nM.

B9: 1A9 (antibody, V domains shown)
VH: QVPLQQSGPELVKPGASVKISCKASGYAFSSSWMNWVKQRPGKGLEWIGRIYPGDGDTKYNGKFKGKATLTADKSSSTAYMQLSSLTSEDSAVYFCARDDYDEASWGQGTLVTVSA
VL: DIVMTQSQKFMSTSVGDRVSITCKASQNVRSAVAWYQQKPGQSPKSLIYLASNRHTGVPDRFTGSGSGTDFTLTISNVQSEDLADYFCLQHWNYPFTFGSGTKLEIK
notes: member of the group m16; also called mAb 1A9; mouse anti-canine IL-4Rα monoclonal antibody 1A9
Regarding B9, the “EC50 (read off the curve)” value in assay [3] is roughly 0.2 nM.

B10: 10E10 (antibody, V domains shown)
VH: QVQLQQSGPELVKPGASVKLSCKASGYTFTTYDIHWVKQRPGQGLEWIGWIYPRDGRTTYNEKFKAKATLTVDTSSTTAYMELHSLTSEDSAVYFCARSSPFGYWGQGTTLTVSS
VL: DIQMTQSSSYLSVSLGGRVTITCKASDHINNWLAWYQQKPGNAPRLLISGATSLETGVPSRFSGSGSGKDYTLSITSLQTEDAATYHCHQYWSIPYTFGGGTKVEIK
notes: member of the group m16; also called mAb 10E10; mouse anti-canine IL-4Rα monoclonal antibody 10E10
For B10, the binding result in assay [3] was “binds”.

B11: 1A3 (antibody, V domains shown)
VH: EVQLVESGGDLVKPGGSLKLSCAASGFTFSDFGMHWVRQAPEKGLGWVAYISSGSGTIYYADTVRGRFTISRDNVKNTLFLQMTSLRSEDTAMYYCVRGDLYYGSSFDAYWGRGTLVTVSA
VL: QIVLSQSPAILSASPGEKVTMTCRASSSVSFMFWYQQKPGSSPKPWIYDTSNLASGVPARFSGSGSGTSYSLTISRVEAEDAATYYCQQWSSNPLTFGAGTKLELK
notes: member of the group m16; also called mAb 1A3; mouse anti-canine IL-4Rα monoclonal antibody 1A3
Take B11: the “EC50 (read off the curve)” value in assay [3] was roughly 0.1 nM.
